Data reported in publication PMC549075.

Target: Lamb brain tubulin (lamb)

HIV-1 Tat protein, Eli strain (natural protein)
ΔOD 350 nm plateau of 15 μM tubulin at 37°C with 8 μM compound: 1.61 ΔOD 350 nm | ΔOD ratio (plateau with 8 μM compound divided by plateau of tubulin alone): 5.27

Tat Eli peptide 38-72
ΔOD 350 nm plateau of 15 μM tubulin at 37°C with 8 μM compound: 1.59 ΔOD 350 nm | ΔOD ratio (plateau with 8 μM compound divided by plateau of tubulin alone): 5.2

Tat Eli peptide 73-99
ΔOD 350 nm plateau of 15 μM tubulin at 37°C with 8 μM compound (same level as the control: not active in tubulin polymerization): 0.3 ΔOD 350 nm | ΔOD ratio (plateau with 8 μM compound divided by plateau of tubulin alone): 1

Tat Oyi peptide 38-72 (from UniProt P20893 38-72)
ΔOD 350 nm plateau of 15 μM tubulin at 37°C with 8 μM compound: 0.78 ΔOD 350 nm | ΔOD ratio (plateau with 8 μM compound divided by plateau of tubulin alone): 2.56

Tat Oyi peptide 73-101 (from UniProt P20893 73-101)
ΔOD 350 nm plateau of 15 μM tubulin at 37°C with 8 μM compound (same level as the control: not active in tubulin polymerization): 0.31 ΔOD 350 nm | ΔOD ratio (plateau with 8 μM compound divided by plateau of tubulin alone): 1.01
